{"source": "paper PMC5013389", "about": "“Competition between members of the tribbles pseudokinase protein family shapes their interactions with mitogen activated protein kinase pathways” (Scientific Reports, 2016)", "binders": {"B1": {"name": "untagged TRIB-3 (natural protein, UniProt Q96RU7 1-358, looked up)", "chain": "MRATPLAAPAGSLSRKKRLELDDNLDTERPVQKRARSGPQPRLPPCLLPLSPPTAPDRATAVATASRLGPYVLLEPEEGGRAYQALHCPTGTEYTCKVYPVQEALAVLEPYARLPPHKHVARPTEVLAGTQLLYAFFTRTHGDMHSLVRSRHRIPEPEAAVLFRQMATALAHCHQHGLVLRDLKLCRFVFADRERKKLVLENLEDSCVLTGPDDSLWDKHACPAYVGPEILSSRASYSGKAADVWSLGVALFTMLAGHYPFQDSEPVLLFGKIRRGAYALPAGLSAPARCLVRCLLRREPAERLTATGILLHPWLRQDPMPLAPTRSHLWEAAQVVPDGLGLDEAREEEGDREVVLYG", "notes": "TRIB3, untagged expression plasmid; also called unlabelled tribbles; untagged tribbles; source: HeLa, transfected, in live cells"}}, "molecular_target": "T1, MKK4-V1 (full length MKK4 fused to the V1 fragment of Venus YFP) (UniProt P45985 1-399)", "T1 construct": "source: HeLa, transfected, in live cells; not shown: Venus YFP fragment V1, C-terminal, kept", "T1 sequence (looked up)": "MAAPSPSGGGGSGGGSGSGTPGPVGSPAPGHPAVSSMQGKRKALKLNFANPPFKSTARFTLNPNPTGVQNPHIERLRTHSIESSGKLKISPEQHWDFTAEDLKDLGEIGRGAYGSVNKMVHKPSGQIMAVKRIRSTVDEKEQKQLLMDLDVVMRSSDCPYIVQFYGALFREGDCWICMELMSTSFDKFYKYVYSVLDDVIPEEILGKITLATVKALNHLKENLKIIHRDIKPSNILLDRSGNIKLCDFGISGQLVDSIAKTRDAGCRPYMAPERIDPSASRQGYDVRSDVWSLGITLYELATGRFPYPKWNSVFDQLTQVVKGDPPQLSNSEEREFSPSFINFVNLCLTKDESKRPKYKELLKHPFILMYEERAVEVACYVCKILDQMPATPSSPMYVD", "assay": "split reporter (BiFC, NanoBiT); competitive PCA in HeLa cells: MKK-V1 and TRIB-V2 co-transfected with an increasing dose of an untagged competitor plasmid (ERK, p38 or TRIB); mean fluorescence by flow cytometry 24 h after transfection; doses are plasmid amounts relative to TRIB-V2", "conditions": "partners not purified"}
{"binder": "B1", "values": [{"measurement": "fold affinity to MKK4 relative to TRIB2", "result": "~15", "unit": "fold"}]}
